This passage reports Km and kcat results from PMC5325305, “Structural and biochemical studies on Vibrio cholerae Hsp31 reveals a novel dimeric form and Glutathione-independent Glyoxalase activity” (PLoS ONE, 2017).

The test system of one series is CC(=O)C=O. Description: purified protein. As to conditions: glutathione-independent, 100 mM sodium phosphate pH 7.5, 1 mM EDTA, 1 mM DTT (printed DDT), 37°C, text lists Km and Vmax values in swapped order, assigned by unit.
Series [1] deals with Cc1cc(=O)oc2cc(NC(=O)[C@H](C)N)ccc12. Description: purified protein. As to conditions: pH 8.0, 37°C, 20 mM Tris, 1 mM dithiothreitol, 3% dimethyl sulfoxide.

A word on the Km: it is the substrate concentration at which the rate is half of its maximum. Broadly, the kcat is the number of substrate molecules converted per active site and unit of time at saturation. Regarding VcHsp31 (Vibrio cholerae), the Michaelis-Menten constant (Km) was determined as 250.8 µM in the series with CC(=O)C=O and 112.5 µM in series [1]. Moreover, the turnover number (kcat) stood at 0.6628 s⁻¹ with CC(=O)C=O and 0.00128 s⁻¹ in series [1].
